Laboratory results as given in the supplement of paper PMC7125110.
± gives the standard error. Fewer inactive variants are shown than the library holds.

B1: glmS ribozyme (parent)
chain: AUAAAAGCGCCAGAACUACAGAAAUGUAGUUGACGAGGAGGAGGUUUAUCGAAUUUUCGGCGGAUGCCUCCAAA

Tests used:
Conditions in all cases: with glucosamine-6-phosphate
glucosamine-6-phosphate [1] = variants of: B1; experiment: self-cleavage kobs at 40 uM GlcN6P; higher = faster cleavage; RNA array
Summary of the method: (§1)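 A hybridised Cy3 probe tracked barcoded ribozyme variants, transcribed in situ by E. coli RNA polymerase on sequenced MiSeq chips, at 37 °C. The variants received 40 μM to 10 mM glucosamine-6-phosphate in HEPES/KCl/Mg(OAc)2 buffer. kobs came from decay fits and kcat and KM from weighted Michaelis–Menten fits.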

glucosamine-6-phosphate [2] = variants of: B1; experiment: self-cleavage kobs at 10000 uM GlcN6P; higher = faster cleavage; RNA array
Summary of the method: as §1

glucosamine-6-phosphate [3] = variants of: B1; experiment: self-cleavage kobs at 160 uM GlcN6P; higher = faster cleavage; RNA array
Summary of the method: as §1

glucosamine-6-phosphate [4] = variants of: B1; experiment: self-cleavage kobs at 640 uM GlcN6P; higher = faster cleavage; RNA array
Summary of the method: as §1

glucosamine-6-phosphate [5] = variants of: B1; experiment: self-cleavage kobs at 2500 uM GlcN6P; higher = faster cleavage; RNA array
Summary of the method: as §1

Variant	self-cleavage kobs at 40 uM GlcN6P (glucosamine-6-phosphate [1]) [s⁻¹]	self-cleavage kobs at 10000 uM GlcN6P (glucosamine-6-phosphate [2]) [s⁻¹]	self-cleavage kobs at 160 uM GlcN6P (glucosamine-6-phosphate [3]) [s⁻¹]	self-cleavage kobs at 640 uM GlcN6P (glucosamine-6-phosphate [4]) [s⁻¹]	self-cleavage kobs at 2500 uM GlcN6P (glucosamine-6-phosphate [5]) [s⁻¹]
A15C C16U U57A G66C	< 1e-05	< 1e-05	–	–	–
G51C A53U U57C G59U	< 1e-05	–	–	–	–
G40U C71A	0.000671 ± 6.2e-05	0.0484 ± 0.0079	0.00189 ± 0.00028	0.00561 ± 0.00069	0.00906 ± 0.0019
A14G G41U U45A C70U	0.000293 ± 5.4e-05	0.000993 ± 0.00019	0.00043 ± 0.00013	0.000588 ± 0.00015	0.00191 ± 0.00054
A15G A48U U55C	< 1e-05	0.000412 ± 8.4e-05	–	–	–
G60U C61U	< 1e-05	< 1e-05	–	< 1e-05	–
G40A G51A	< 1e-05	< 1e-05	< 1e-05	< 1e-05	< 1e-05
G7A A33C	< 1e-05	< 1e-05	< 1e-05	< 1e-05	–
G38A U46G A52U	< 1e-05	–	–	–	–
C61A G62C G63U C71A	< 1e-05	< 1e-05	–	–	–
C10G C50A	< 1e-05	–	–	< 1e-05	–
A15U G43U	< 1e-05	< 1e-05	< 1e-05	< 1e-05	–
A36U G43C	< 1e-05	–	< 1e-05	< 1e-05	< 1e-05
U55A G60A C67U	< 1e-05	–	–	–	–
G59A G62C	< 1e-05	< 1e-05	< 1e-05	< 1e-05	< 1e-05
G7U A53U U57A	< 1e-05	–	–	–	–
G43C U65A	< 1e-05	–	–	< 1e-05	< 1e-05
C10A C16A G51U C68G C71A	7.7e-05 ± 2e-05	8.53e-05 ± 1.6e-05	–	0.00052 ± 0.00016	–
A64G C68U	< 1e-05	3.13e-05 ± 9.2e-06	< 1e-05	–	2.62e-05 ± 9e-06
C11U A12U G13U A64C	< 1e-05	< 1e-05	–	–	–
A42G G43C U45G A64U	< 1e-05	< 1e-05	–	–	–
G9C A39C G44C	< 1e-05	–	–	–	–
U31A C34U C71U	< 1e-05	–	–	–	–
A33U G51U	< 1e-05	–	< 1e-05	–	–
